The test addresses AtBAM1 ectodomain (residues 20-629) (Arabidopsis thaliana) (UniProt O49545). The experiment in a line: ITC. (In general: ITC needs no label: the signal is the heat of the interaction.)
Chain of UniProt O49545 (O49545 20-629): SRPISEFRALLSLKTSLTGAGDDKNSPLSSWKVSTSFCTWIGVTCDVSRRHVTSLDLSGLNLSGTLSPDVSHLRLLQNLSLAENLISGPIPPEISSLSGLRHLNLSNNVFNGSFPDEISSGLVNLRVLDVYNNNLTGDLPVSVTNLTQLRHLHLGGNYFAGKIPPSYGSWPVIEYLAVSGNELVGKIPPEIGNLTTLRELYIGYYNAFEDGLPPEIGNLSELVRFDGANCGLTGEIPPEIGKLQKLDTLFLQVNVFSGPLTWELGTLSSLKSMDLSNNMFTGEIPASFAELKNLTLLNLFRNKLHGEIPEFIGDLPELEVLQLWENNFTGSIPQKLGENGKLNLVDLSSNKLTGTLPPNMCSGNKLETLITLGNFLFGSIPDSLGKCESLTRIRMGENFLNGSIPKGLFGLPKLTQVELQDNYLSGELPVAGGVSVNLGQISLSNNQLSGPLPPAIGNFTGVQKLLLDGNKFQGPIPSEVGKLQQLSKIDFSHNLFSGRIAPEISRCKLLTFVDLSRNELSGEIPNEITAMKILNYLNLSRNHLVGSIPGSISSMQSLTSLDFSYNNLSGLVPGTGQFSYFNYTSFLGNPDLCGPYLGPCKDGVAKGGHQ

In turn, AtCLV3p (Arabidopsis CLAVATA3 peptide) came in with a fold lower affinity than AtCLE13p of 1000 fold.

The values are drawn from publication PMC12236821.
